Results on one substance are retold here after PMC5825156.

This assay deals with SIMx4 probe (fragment of Ring Finger Protein 4 comprising four SIMs) (Rattus norvegicus) (UniProt O88846). In words: pull-down; lysate of E. coli expressing HA-TbSUMO chains or monomer incubated with His-tagged SIMx4 or mutSIMx4 probe, 50 mM Tris HCl pH 7.6, 150 mM NaCl, 1% NP40, 0.5% deoxycholate, 1.5 h at 4°C; captured on Ni^+2-resin, washed with 250 mM NaCl, eluted with imidazole; Western blot anti-HA, three replicates. On the technique in general: In western blotting, separated proteins are transferred to a membrane and probed.
Chain of UniProt O88846 (O88846 32-132): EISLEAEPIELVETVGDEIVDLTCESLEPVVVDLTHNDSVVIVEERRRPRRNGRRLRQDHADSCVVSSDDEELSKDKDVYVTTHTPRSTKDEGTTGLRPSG

The substance “HA-TbSUMO chains (poly-SUMO chains of Trypanosoma brucei SUMO made by in bacteria SUMOylation)” came in with a fold pulled down against the mutSIMx4 probe or beads alone above 3 fold.
